Key:
[1] = target: CXCR4-bearing Jurkat cells (Homo sapiens, UniProt P61073)
MonoMac6 cells = experiment: Monocytic cell arrest under flow on CHO/ICAM-1 cells; type: cell-based; conditions: exposure 2 h, flow conditions
Method: (§1) Arrest of calcein-AM (Molecular Probes)-labeled monocytes, T cells and L1.2 transfectants was quantified in parallel-wall chambers in flow (1.5 dynes/cm^2, 5 min) (Schober, A., at al. (2004) Circulation 109, 380-385; Osterman, G., at al. (2002) Nat. Immunol. 3, 151-158; Weber, C., at al. (1996) J. Cell Biol. 134, 1063-1073).

[2] = tested on: primary human effector T cells; experiment: T-cell arrest under flow on aortic endothelial cells; type: cell-based; conditions: immobilized on aortic endothelial cells
Method: as §1

primary human monocytes [3] = experiment: Transwell chemotaxis of monocytes; type: cell-based
Method: (§2) Pore sizes and intervals were 5 μm and 3 h (monocytes), 3 μm and 1.5 h (T cells), and […] and 1 h (neutrophils).

[4] = tested on: primary CD3+ T lymphocytes; experiment: Transwell chemotaxis of T cells; type: cell-based, human; conditions: CD3+ T lymphocytes devoid of CXCR1 and CXCR2
Method: as §2

[5] = tested on: primary human neutrophils; experiment: Transwell chemotaxis of neutrophils; type: cell-based
Method: as §2

primary human monocytes [6] = experiment: Monocyte arrest under flow on human aortic endothelial cells; type: cell-based; conditions: endothelial cells pretreated 2 h, flow conditions
Method: as §1

αLβ2 (LFA-1) = experiment: αLβ2 integrin activation assay (327C reporter antibody, flow cytometry); type: cell-based; conditions: MonoMac6 cells and human blood monocytes; persisted over 30 min
Text: LFA-1 activation analyzed by flow cytometry is reported as the increase in mean fluorescent intensity (MFI) or relative to the positive control (Shamri, R., at al. (2005) Nat. Immunol. 6, 497-506).

[7] = tested on: primary human neutrophils; experiment: Calcium mobilization in neutrophils (Fluo-4 AM); type: cell-based
CXCR2 [8] = experiment: Calcium mobilization in L1.2 CXCR2 transfectants; type: cell-based
CXCR2 [9] = target: T1, CXCR2 (Homo sapiens, UniProt P25025); experiment: CXCR2 internalization assay, HEK293-CXCR2; type: cell-based; conditions: FACS of surface CXCR2, stable HEK293 transfectants
T1 construct: expressed in transfected cells
T1 sequence (P25025 1-360): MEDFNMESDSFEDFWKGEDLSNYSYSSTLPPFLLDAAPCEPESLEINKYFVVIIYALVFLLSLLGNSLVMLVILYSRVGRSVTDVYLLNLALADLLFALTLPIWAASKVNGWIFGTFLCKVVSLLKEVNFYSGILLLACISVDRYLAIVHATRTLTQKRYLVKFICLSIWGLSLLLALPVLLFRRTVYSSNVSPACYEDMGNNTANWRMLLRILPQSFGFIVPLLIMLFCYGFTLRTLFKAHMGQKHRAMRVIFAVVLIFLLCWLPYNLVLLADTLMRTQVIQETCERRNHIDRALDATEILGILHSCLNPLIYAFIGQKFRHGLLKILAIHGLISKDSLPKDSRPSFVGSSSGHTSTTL
Method: (§3) Internalization was calculated relative to surface expression of buffer-treated cells (100% control) and isotype control staining (0% control): geometric MFI[experimental]−MFI[0% control]/MFI[100% control]−MFI[0% control]×100.

CCR5 = target: T2, CCR5 (Homo sapiens, UniProt P51681); experiment: CCR5 internalization in L1.2 CCR5 transfectants; type: cell-based
T2 construct: host or cells: L1.2 pre-B lymphoma cells
Method: as §3

[10] = tested on: postcapillary venules of cremaster muscle; experiment: Cremaster microcirculation model, intravital microscopy; type: in vivo, mouse; conditions: MIF injected adjacent to the muscle
Method: After 4 h, intravital microscopy (Zeiss Axioplan; 20×) was performed in postcapillary venules (Gregory, J. L., at al. (2004) Arthritis Rheum. 50, 3023-3034; Keane, M. P., at al. (2004) J. Immunol. 172, 2853-2860). Adhesion was measured as leukocytes stationary for more than 30 s, emigration as the number of extravascular leukocytes per field.

[11] = tested on: mice with wild-type bone marrow; experiment: Model of acute peritonitis (MIF-induced); type: in vivo, mouse; conditions: after 4 h
Method: After 4 h, peritoneal lavage was performed and Gr-1^+CD115^−F4/80^− neutrophils were quantified by flow cytometry using the relevant conjugated antibodies.

[12] = tested on: human aortic (or venous) endothelial cells; experiment: Real-time PCR and ELISA of arrest chemokines in endothelial cells; type: cell-based; conditions: 2-h-long preincubation
Method: RNA was reverse-transcribed using oligo-dT primers. RTPCR was performed using QuantiTect Kit with SYBRGreen (Qiagen), specific primers and an MJ Opticon2 (Biozym). CXCL8 was quantified by Quantikine ELISA (R&D).

[13] = 12 weeks, compared with vehicle controls

Sequence of CXCR4-bearing Jurkat cells (P61073 whole entry): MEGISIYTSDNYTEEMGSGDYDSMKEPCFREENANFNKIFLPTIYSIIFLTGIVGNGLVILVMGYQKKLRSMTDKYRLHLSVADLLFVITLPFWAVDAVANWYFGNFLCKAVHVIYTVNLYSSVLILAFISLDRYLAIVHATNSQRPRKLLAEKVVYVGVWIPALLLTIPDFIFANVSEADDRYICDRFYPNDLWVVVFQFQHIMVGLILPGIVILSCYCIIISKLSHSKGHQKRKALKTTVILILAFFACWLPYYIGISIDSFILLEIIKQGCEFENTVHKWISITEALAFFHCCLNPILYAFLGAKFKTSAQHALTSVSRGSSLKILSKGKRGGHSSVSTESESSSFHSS
T2 sequence (P51681 whole entry): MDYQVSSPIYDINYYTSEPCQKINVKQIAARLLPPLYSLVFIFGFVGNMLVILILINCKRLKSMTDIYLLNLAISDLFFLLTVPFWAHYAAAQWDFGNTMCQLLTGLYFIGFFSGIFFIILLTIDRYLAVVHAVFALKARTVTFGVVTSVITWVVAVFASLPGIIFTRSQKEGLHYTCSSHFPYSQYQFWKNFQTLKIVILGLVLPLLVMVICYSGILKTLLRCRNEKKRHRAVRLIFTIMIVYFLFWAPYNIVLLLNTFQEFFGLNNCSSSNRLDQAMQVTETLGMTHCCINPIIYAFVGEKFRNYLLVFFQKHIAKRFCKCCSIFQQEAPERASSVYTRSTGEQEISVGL

## c1ccc(CNCc2ccc(CN3CCCNCCNCCCNCC3)cc2)nc1 [AMD3465]
[1]
  effect on specific binding of fluorescein-MIF to CXCR4-bearing Jurkat cells: inhibited
Apoe−/− mice; [13]
  lesion formation in oil red O-stained aortic root sections: significantly exacerbates lesion formation
  lesion formation in thoracoabdominal aortas prepared en face: significantly exacerbates lesion formation
Apoe−/− mice; further increases during disease progression
  relative number of circulating neutrophils: expansion in the relative number of circulating neutrophils
Apoe−/− mice; within 2 days, sustained throughout the study period
  peripheral blood leukocytes: pronounced peripheral blood leukocytosis

## CXCL8: Chemokine from PeproTech; cognate CXCR2 ligand [reference compound]
MonoMac6 cells
  monocytic cell arrest on pretreated CHO/ICAM-1 transfectants: increased monocytic cell arrest

## CXCL12: Chemokine from PeproTech; known CXCR4 ligand and T-cell chemoattractant [reference compound]
[2]
  arrest of primary human effector T cells: triggered the arrest

B1: MIF: Recombinant MIF, expressed and purified as described; pro-inflammatory cytokine, ligand for CXCR2, CXCR4 and CD74 (protein)
chain: PMFIVNTNVPRASVPDGFLSELTQQLAQATGKPPQYIAVHVVPDQLMAFGGSSEPCALCSLHSIGKIGGAQNRSYSKLLCGLLAERLRISPDRVYINYYDMNAANVGWNNSTFA
Primary human monocytes [3]
  MIF concentration that induced optimal chemotaxis: 2 to 4 nM
Primary human monocytes [3]; MIF in lower chamber
  optimum concentration of bell-shaped dose-response curve of monocyte migration: 25 to 50 ng/mL
[4]
  induction of T-cell transmigration: dose-dependently induced transmigration
[5]
  chemotactic activity on neutrophils: exerted CXCR2- but not CXCR1-mediated chemotactic activity
Primary human monocytes [6]
  arrest of primary human monocytes on pretreated endothelial cells: substantially increased
MonoMac6 cells
  monocytic cell arrest on pretreated CHO/ICAM-1 transfectants: increased monocytic cell arrest
[2]
  arrest of primary human effector T cells: triggered the arrest
αLβ2 (LFA-1)
  earliest time of αLβ2 activation after exposure: 1 min
[7]
  calcium influx in neutrophils: induced calcium influx
CXCR2 [8]
  calcium influx in CXCR2 transfectants: dose-dependently induced calcium influx, and was slightly less potent and effective than CXCL8 or CXCL7
CXCR2 [9]
  CXCR2 internalization: induced CXCR2 internalization
CCR5
  CCR5 internalization: unable to induce CCR5 internalization
[10]
  leukocyte adhesion and emigration in postcapillary venules: marked increase
[11]
  neutrophil recruitment after intraperitoneal injection: elicited neutrophil recruitment
[12]
  upregulation of arrest chemokines known to engage CXCR2 (CXCL1, CXCL8): failed to upregulate

Reference: patent publication US20110262386A1, “METHODS OF TREATING INFLAMMATION” (CAROLUS THERPEUTICS, INC., priority 2008, published 2011)
